{
  "source": "patent US9981059B2",
  "about": "“Sugar chain-polypeptide complex” (Glytech, Inc., priority 2013, dated 2018)",
  "key": {"[1]": {"assay": "Steel ball loading test of hydrogel property", "format": "physicochemical", "set-up": "key to position of the steel ball / hydrogel state: The state of the steel ball staying near the hydrogel surface was set as ◯; sinking after loading and staying internally was set as Δ; sinking to the bottom of the Durham's tube was set as X; * was added to those where the hydrogel was not uniform and clouding or insoluble matter (precipitate) was observed", "protocol": "Ten mg of the sugar chain-polypeptide complex or 10 mg of the control polypeptide were dissolved in 500 μL of ultrapure water to prepare 2 wt. % polypeptide solutions. […] In doing so, citrate-phosphate buffer (pH 2.0 and 3.5), phosphate buffer (pH 7.4), and phosphate-sodium hydroxide buffer (pH 11.5) were employed as the buffer. The surface of the hydrogel inside the Durham's tube was horizontally placed, left still for 20 minutes under room temperature conditions, and a steel ball (diameter 1.56 mm, weight 16 mg, FUNABE SEIKO Co., Ltd.) was loaded on the hydrogel. After 10 minutes, the position of the steel ball was observed by visual confirmation.\nThe position of the steel ball inside the Durham's tube was evaluated in 3 grades. The state of the steel ball staying near the hydrogel surface was set as ◯, sinking after loading and staying internally was set as Δ, and sinking to the bottom of the Durham's tube was set as X. In addition, * was added to those where the hydrogel was not uniform and clouding or insoluble matter (precipitate) was observed. A hydrogel where the steel ball stays around the surface (◯) and no clouding or insoluble matter is seen (no *) was thought to be a gel that is transparent and uniform."}, "[2]": {"assay": "Kinetic viscosity measurement with rheometer", "format": "physicochemical", "conditions": "0.5 wt. % hydrogel, pH 7, 25 degrees", "protocol": "A rheometer (MCR302, Anton Paar GmbH) equipped with a stainless steel parallel plate having a diameter of 25 mm with 0.3 mm gap height was employed for kinetic viscosity measurement. […] Five millimolars of aqueous sodium hydroxide solution was added to these aqueous polypeptide solutions in order to adjust the pH to prepare 0.5 wt. % hydrogels at pH 7. Subsequently, these hydrogels were quickly transferred to a rheometer set at 25 degrees, and phase angle (tan δ) was monitored over a time course. (frequency=1 Hz, distortion=10%)"}, "[3]": {"assay": "Steel ball loading test of hydrogels comprising rat blood plasma (utility as hemostatic matrix)", "format": "physicochemical", "conditions": "polypeptide 0.5 wt. %", "protocol": "Aqueous polypeptide solutions were prepared with a method similar to Example 1. Blood was collected from 7 weeks-old Crlj:WI rats with heparin sodium injection (Ajinomoto), and blood plasma was obtained from the supernatant after centrifugation treatment. The aqueous polypeptide solution, blood plasma, and PBS were added to a Durham's tube, and hydrogels was prepared so that the plasma concentration was 5-50% and the polypeptide concentration was 0.5 wt. %. Subsequently, these were left for 20 minutes at room temperature condition, and then steel ball loading tests were carried out with a method similar to Example 1."}, "[4]": {"assay": "Circular dichroism (CD) measurement of β sheet structure", "format": "physicochemical", "protocol": "In general, the characteristics of the wavelengths observed when a substance has a β sheet structure are a positive absorption at around 197 nm and a negative absorption at around 216 nm. For this reason, focus was placed on the size of these wavelengths in the present invention, and the influence of pH on the β sheet structure was investigated.\nOne to ten millimolars of aqueous sodium hydroxide solutions were added to each of these aqueous polypeptide solutions to adjust the pH, and 100 mM aqueous polypeptide solutions at having pH 2 or pH 7 were created. These aqueous solutions were transferred to quartz cells having an optical path length of 0.1 cm. The CD spectrum was then measured with a spectrum polarimeter (J-805, Jasco) at wavelengths of 185-260 nm for ellipticity (millidegree). The mean residue ellipticity θ was calculated with the following formula: [θ]=(θobs/10·l·c)/r\nwherein θobs represents the ellipticity measured in millidegree, l represents the cell length (cm), c represents the concentration (M), and r represents the number of amino acid residues."}, "[5]": {"biological_target": "T1, Bovine Serum Albumin (BSA) (Bos taurus, UniProt P02769)", "T1 construct": "purchased Life Technologies A13100", "T1 sequence (P02769 25-607)": "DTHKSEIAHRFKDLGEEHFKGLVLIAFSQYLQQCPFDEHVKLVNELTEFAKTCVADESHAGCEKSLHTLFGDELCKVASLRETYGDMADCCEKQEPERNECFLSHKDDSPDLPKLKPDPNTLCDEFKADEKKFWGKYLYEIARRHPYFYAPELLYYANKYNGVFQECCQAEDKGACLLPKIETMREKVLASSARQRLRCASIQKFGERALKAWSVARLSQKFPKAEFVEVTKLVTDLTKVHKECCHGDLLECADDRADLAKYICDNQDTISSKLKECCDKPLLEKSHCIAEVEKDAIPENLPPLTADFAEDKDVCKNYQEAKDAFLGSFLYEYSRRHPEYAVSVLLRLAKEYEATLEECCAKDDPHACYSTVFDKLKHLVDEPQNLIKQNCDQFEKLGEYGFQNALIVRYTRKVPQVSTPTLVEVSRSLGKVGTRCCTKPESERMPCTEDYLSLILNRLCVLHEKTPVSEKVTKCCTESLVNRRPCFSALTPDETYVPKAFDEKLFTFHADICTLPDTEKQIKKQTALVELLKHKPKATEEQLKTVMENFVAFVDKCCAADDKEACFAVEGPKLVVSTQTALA", "assay": "Controlled release capability for acidic protein encapsulated in hydrogel", "protocol": "A phosphate buffer (pH 7.4) was employed as the buffer. Moreover, Bovine Serum Albumin (BSA) fluorescently labeled with Alexa Fluor™ 488 (A13100, Life Technologies) was employed as the acidic protein to be encapsulated into the hydrogel.\nThe components were added to the tube so that the buffer salt concentration is 0.15 M, the BSA concentration is 5 μM, and the polypeptide concentration is 0.25-1 wt. %, and mixed by vortex. The mixture was added to the Multiwell Insert System (351130, BD) at 50 μL each, and left overnight in an incubator at 37 degrees (CO2 incubator for cell culture, MCO-18AIC, SANYO) with shading to prepare BSA-encapsulating hydrogels. In the incubator at 37 degrees, the Insert System was immersed in a 96-well flat bottom plate (353928, BD) with a buffer identical to the hydrogel added at 225 μL each, and the plate was shaken with a plate shaker (MICRO PLATE MIXER NS-P, AS ONE Corporation, rotation speed: ⅕ of scale) to initiate the test (0 hours). Subsequently, the fluorescence amount that leaked out over time on the flat bottom plate side was measured with a fluorescence plate reader (SpectraMax M3, Molecular Devices, LLC.). A standard curve was created with the identical fluorescently-labeled BSA, and the protein concentration was calculated from the amount of fluorescent dye that leaked out. A solution of only BSA added to the buffer (W/O SAP) was employed as the control."}, "[6]": {"conditions": "hydrogel concentration 0.5 wt. %, pH 3.5"}, "[7]": {"conditions": "hydrogel concentration 0.5 wt. %, pH 7.4"}},
  "data": [
    {"substance": "2C(Maltose)-(RADA)4 [Compound 8]", "values": [
      {"measurement": "hydrogel formed (in words)", "setting": "[1]; Example 4, 0.5 wt. %, pH 7.4", "result": "did not form hydrogels"},
      {"measurement": "position of the steel ball / hydrogel state", "setting": "[1]; [6]", "result": "◯*"},
      {"measurement": "position of the steel ball / hydrogel state", "setting": "[1]; [7]", "result": "X*"}
    ]},
    {"substance": "2C(Maltotriose)-(RADA)4 [Compound 9]", "values": [
      {"measurement": "hydrogel formed (in words)", "setting": "[1]; 0.5 wt. %, pH 3.5 and pH 7.4", "result": "transparent and uniform hydrogels"},
      {"measurement": "position of the steel ball / hydrogel state", "setting": "[1]; [6]", "result": "◯"},
      {"measurement": "position of the steel ball / hydrogel state", "setting": "[1]; [7]", "result": "◯"}
    ]},
    {"substance": "3C(Maltose)-(RADA)4 [Compound 12]", "values": [
      {"measurement": "hydrogel formed (in words)", "setting": "[1]; 0.5 wt. %, pH 3.5 and pH 7.4", "result": "transparent and uniform hydrogels"},
      {"measurement": "position of the steel ball / hydrogel state", "setting": "[1]; [6]", "result": "◯"},
      {"measurement": "position of the steel ball / hydrogel state", "setting": "[1]; [7]", "result": "◯"}
    ]},
    {"substance": "(RADA)4 [Compound 1]", "values": [
      {"measurement": "hydrogel formed (in words)", "setting": "[1]; 1 wt. %, pH 2.0", "result": "transparent and uniform hydrogel"},
      {"measurement": "hydrogel formed (in words)", "setting": "[1]; 1 wt. %, pH 3.5 or higher", "result": "ununiform hydrogel with clouding"},
      {"measurement": "position of the steel ball / hydrogel state", "setting": "[1]; [6]", "result": "X*"},
      {"measurement": "position of the steel ball / hydrogel state", "setting": "[1]; [7]", "result": "X*"},
      {"measurement": "position of the steel ball / hydrogel state", "setting": "[1]; peptide concentration 1 wt. %, pH 2.0", "result": "◯"},
      {"measurement": "position of the steel ball / hydrogel state", "setting": "[1]; peptide concentration 1 wt. %, pH 3.5", "result": "Δ*"},
      {"measurement": "position of the steel ball / hydrogel state", "setting": "[1]; peptide concentration 1 wt. %, pH 7.4", "result": "X*"},
      {"measurement": "position of the steel ball / hydrogel state", "setting": "[1]; peptide concentration 1 wt. %, pH 11.5", "result": "X*"},
      {"measurement": "rigidity of hydrogel formed", "setting": "[2]", "result": "a fragile hydrogel is formed, or an ununiform hydrogel that is only partially rigid is formed"},
      {"measurement": "phase angle (tan δ) over a time course", "setting": "[2]; frequency 1 Hz, distortion 10%", "result": "large phase angle"},
      {"measurement": "position of the steel ball / hydrogel state", "setting": "[3]; plasma concentration 5%", "result": "X*"},
      {"measurement": "hydrogel formed in presence of blood plasma (in words)", "setting": "[3]; plasma concentration 5-50%", "result": "clouded and insoluble matters were observed at all plasma concentrations"},
      {"measurement": "position of the steel ball / hydrogel state", "setting": "[3]; plasma concentration 10%", "result": "X*"},
      {"measurement": "position of the steel ball / hydrogel state", "setting": "[3]; plasma concentration 25%", "result": "Δ*"},
      {"measurement": "position of the steel ball / hydrogel state", "setting": "[3]; plasma concentration 50%", "result": "Δ*"},
      {"measurement": "β sheet structure formation", "setting": "[4]; neutral pH", "result": "formed almost no β sheet structure"},
      {"measurement": "molar ellipticity (CD)", "setting": "[4]; pH 2, 100 mM aqueous polypeptide solution", "result": "high molar ellipticity"},
      {"measurement": "molar ellipticity (CD)", "setting": "[4]; pH 7, 100 mM aqueous polypeptide solution", "result": "significantly reduced"},
      {"measurement": "controlled release capability (BSA leakage speed vs solution without any polypeptide)", "setting": "[5]; pH 7.4, polypeptide 0.5 wt. % or less", "result": "does not possess controlled release capability"},
      {"measurement": "leakage of BSA encapsulated in the hydrogel", "setting": "[5]; phosphate buffer pH 7.4, 37 degrees, polypeptide 0.25-1 wt. %", "result": "leaked out in a short time"}
    ]},
    {"substance": "(RATARAEA)2 (RATARAEARATARAEA) [Compound 16]", "values": [
      {"measurement": "hydrogel formed (in words)", "setting": "[1]; 0.5 wt. %, pH 3.5 and pH 7.4", "result": "ununiform and clouded hydro gel"},
      {"measurement": "position of the steel ball / hydrogel state", "setting": "[1]; [6]", "result": "X*"},
      {"measurement": "position of the steel ball / hydrogel state", "setting": "[1]; [7]", "result": "X*"}
    ]},
    {"substance": "C(DiGlcNAc)-(RADA)4 [Compound 2]", "values": [
      {"measurement": "controlled release capability (BSA leakage speed vs solution without any polypeptide)", "setting": "[5]; pH 7.4, concentration as low as 0.25 wt. %", "result": "showing controlled release capability"}
    ]},
    {"substance": "C(Maltose)-(RADA)4-C(Maltose) [Compound 10]", "values": [
      {"measurement": "hydrogel formed (in words)", "setting": "[1]; Example 4, 0.5 wt. %, pH 7.4", "result": "did not form hydrogels"},
      {"measurement": "position of the steel ball / hydrogel state", "setting": "[1]; [6]", "result": "◯*"},
      {"measurement": "position of the steel ball / hydrogel state", "setting": "[1]; [7]", "result": "X*"}
    ]},
    {"substance": "C(Maltotriose)-(RADA)4-C(Maltotriose) [Compound 11]", "values": [
      {"measurement": "hydrogel formed (in words)", "setting": "[1]; 0.5 wt. %, pH 3.5 and pH 7.4", "result": "transparent and uniform hydrogels"},
      {"measurement": "position of the steel ball / hydrogel state", "setting": "[1]; [6]", "result": "◯"},
      {"measurement": "position of the steel ball / hydrogel state", "setting": "[1]; [7]", "result": "◯"}
    ]},
    {"substance": "C(PEG2000)-(RADA)4 [Compound 14]", "values": [
      {"measurement": "hydrogel formed (in words)", "setting": "[1]; 0.5 wt. %, pH 3.5 and pH 7.4", "result": "uniform hydrogels were not formed"},
      {"measurement": "position of the steel ball / hydrogel state", "setting": "[1]; [6]", "result": "X"},
      {"measurement": "position of the steel ball / hydrogel state", "setting": "[1]; [7]", "result": "X"}
    ]}
  ]
}
